The source of these data is patent US20220041736A1 (Amgen, published 2022).

In experiment [1] the target is T1, 1-27 CD3-Fc (N-terminal amino acids 1-27 of the mature human CD3 epsilon chain fused to the hinge and Fc … (human)).
T1 construct: Entry 229 is printed without the leader peptide; also called 27 aa huCD3ε; 1-27 CD3ε-Fc
As to the kind of experiment: ELISA, immobilized antigen, crude periplasmic preparation. A general note: In an ELISA, binding on a coated surface is turned into a signal by an enzyme label.

Experiment [2] concerns the target T2, human 1-27 CD3 BSA conjugate (peptide of the N-terminal amino acids 1-27 of human CD3 epsilon plus C-terminal … (human, printed as acetyl-QDGNEEMGGITQTPYKVSISGTTVILTC; C-terminal Cys 28 coupled to maleimide activated BSA).
T2 construct: also called peptide-BSA conjugate
T2 peptide: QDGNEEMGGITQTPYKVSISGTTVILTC
Described as above.

In experiment [3] the target is T3, BSA (bovine serum albumin, blocking agent) (bovine, UniProt P02769 25-607).
T3 construct: also called bovine Albumin, fraction V
The experiment can be described thus: ELISA, blocked wells without antigen, crude periplasmic preparation.

Experiment [4] addresses T1, 1-27 CD3-Fc (N-terminal amino acids …). The experiment can be described thus: ELISA, captured 1-27 CD3-Fc, crude periplasmic scFv.
Experiment [5] has as its target T4, human 1-27 CD3ε-EpCAM (1-27 N-terminal amino acids of human CD3 epsilon, Flag tag, cynomolgus EpCAM) (human CD3 epsilon 1-27 / cynomolgus …).
T4 construct: also called 1-27 CD3-EpCAM comprising the human 27 mer
T4 chain: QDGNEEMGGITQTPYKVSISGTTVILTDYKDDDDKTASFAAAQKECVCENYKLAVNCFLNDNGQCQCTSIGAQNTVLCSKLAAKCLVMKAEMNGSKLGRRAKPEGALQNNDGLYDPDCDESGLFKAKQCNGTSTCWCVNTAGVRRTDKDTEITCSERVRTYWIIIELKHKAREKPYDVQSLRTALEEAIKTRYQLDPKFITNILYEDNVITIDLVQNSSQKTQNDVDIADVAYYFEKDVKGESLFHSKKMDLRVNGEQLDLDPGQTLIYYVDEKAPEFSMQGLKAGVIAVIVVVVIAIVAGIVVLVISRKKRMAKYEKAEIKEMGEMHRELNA
As to the kind of experiment: FACS, transfected 293-HEK cells.

Another experiment concerns the target T5, marmoset 1-27 CD3ε-EpCAM (Callithrix jacchus CD3 epsilon 1-27 / …).
T5 construct: Transmembrane fusion on 293-HEK or CHO cells; also called 1-27 CD3-EpCAM comprising the marmoset 27 mer
T5 chain: T4 chain with G9D, I10T, T13N, I25T
The experiment can be described thus: FACS, transfected 293-HEK cells. On the technique in general: A flow cytometer gives signals particle by particle.

A further experiment addresses T6, tamarin 1-27 CD3ε-EpCAM (Saguinus oedipus CD3 epsilon 1-27 / …).
T6 construct: Transmembrane fusion on 293-HEK or CHO cells; also called 1-27 CD3-EpCAM comprising the tamarin 27 mer
T6 chain: T4 chain with G9D, I10T, T13N, I25T
As to the kind of experiment: FACS, transfected 293-HEK cells.

Experiment [6] concerns the target T7, squirrel monkey 1-27 CD3ε-EpCAM (Saimiri sciureus CD3 epsilon 1-27 / …).
T7 construct: Transmembrane fusion on 293-HEK or CHO cells; also called 1-27 CD3-EpCAM comprising the squirrel monkey 27 mer
T7 chain: T4 chain with M7I, G9D, I10T, T13N, I25T
The experiment can be described thus: FACS, transfected 293-HEK cells.

The target in the next experiment is T8, swine 1-27 CD3ε-EpCAM (Sus scrofa CD3 epsilon 1-27 / …).
T8 construct: Negative control construct on 293-HEK or CHO cells; also called 1-27 CD3-EpCAM comprising the swine 27 mer
T8 chain: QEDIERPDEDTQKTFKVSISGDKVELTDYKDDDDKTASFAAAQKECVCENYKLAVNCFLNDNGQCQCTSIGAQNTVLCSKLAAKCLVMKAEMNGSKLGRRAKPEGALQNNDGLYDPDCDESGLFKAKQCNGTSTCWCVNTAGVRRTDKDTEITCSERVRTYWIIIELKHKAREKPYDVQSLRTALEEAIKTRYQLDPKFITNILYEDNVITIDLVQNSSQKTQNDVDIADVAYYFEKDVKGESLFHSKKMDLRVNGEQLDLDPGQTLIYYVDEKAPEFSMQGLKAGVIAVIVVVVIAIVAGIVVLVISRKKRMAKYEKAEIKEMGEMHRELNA
The experiment can be described thus: FACS, transfected 293-HEK cells, crude periplasmic scFv.

Numbering of substitutions follows the chain as printed. Numbers in names are those of the source.

T3 sequence (P02769 25-607 limits assumed): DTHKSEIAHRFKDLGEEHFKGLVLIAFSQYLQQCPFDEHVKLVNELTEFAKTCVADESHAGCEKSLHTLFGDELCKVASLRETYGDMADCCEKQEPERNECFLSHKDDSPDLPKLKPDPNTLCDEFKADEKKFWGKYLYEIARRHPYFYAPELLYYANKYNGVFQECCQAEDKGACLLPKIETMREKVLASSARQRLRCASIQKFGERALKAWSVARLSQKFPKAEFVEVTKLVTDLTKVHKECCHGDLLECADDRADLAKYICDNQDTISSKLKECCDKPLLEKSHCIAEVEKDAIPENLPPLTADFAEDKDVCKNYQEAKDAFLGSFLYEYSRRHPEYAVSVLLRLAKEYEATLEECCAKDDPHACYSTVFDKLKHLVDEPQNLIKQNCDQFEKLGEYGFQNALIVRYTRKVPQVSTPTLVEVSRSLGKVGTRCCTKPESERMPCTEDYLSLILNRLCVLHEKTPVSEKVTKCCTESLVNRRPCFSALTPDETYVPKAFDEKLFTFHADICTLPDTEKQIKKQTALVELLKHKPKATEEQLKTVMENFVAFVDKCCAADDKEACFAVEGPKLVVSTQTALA

B1: anti-CD3 single domain antibody CD3 3D-H11 (VHH)
VHH: EVQLVESGGGLVQPGGSLRLSCAASGFTFDDYGMSWVRQAPGKWLEWVSDISWNGGSTYYADSVKGRFTISRDNAENTLYLQMNSLKPDDTAVYYCAKMGEGGWGANDYWGQGTQVTVSS
notes: Crude periplasmic preparation from pComb3H5BFlag/His; also called V CD3 3D-H11
As to B1, the binding result in experiment [1] is on record as “binds”; in experiment [2] it was “binds”; in experiment [3], “no binding”.

B2: A2J HLP single-chain antibody (scFv)
scFv: EVQLLESGGGLVQPGGSLKLSCAASGFTFNVYAMNWVRQAPGKGLEWVARIRSKYNNYATYYADSVKKRFTISRDDSKNTAYLQMNNLKTEDTAVYYCVRHGNFGNSYLSWWAYWGQGTLVTVSSGGGGSGGGGSGGGGSELVVTQEPSLTVSPGGTVTLTCRSSTGAVTSGYYPNWVQQKPGQAPRGLIGATDMRPSGTPARFSGSLLGGKAALTLSGVQPEDEAEYYCALWYSNRWVFGGGTKLTVLTGDYKDDDDKHHHHHH
notes: Crude periplasmic preparation from pComb3H5BFlag/His; also called VH-VL-P of A2J
Take B2: the binding result in experiment [4] is given as “binds”.

B3: E2M HLP single-chain antibody (scFv)
scFv: B2 scFv with V31G, K68E, G102R, W112F
notes: Crude periplasmic preparation; also called VH-VL-P of E2M
Regarding B3, the binding result is recorded as “binds” in experiment [5]; “binds” with marmoset 1-27 CD3ε-EpCAM; “binds” in the experiment with tamarin 1-27 CD3ε-EpCAM; “binds” in [6]; “binds” in [4]; “no binding” with swine 1-27 CD3ε-EpCAM.
